The results in this text go back to publication PMC2697666 (Journal of molecular biology, 2009).

The assay concerns the target human factor Xa (human).

Sequence of human factor Xa (human) (P00742 41-488): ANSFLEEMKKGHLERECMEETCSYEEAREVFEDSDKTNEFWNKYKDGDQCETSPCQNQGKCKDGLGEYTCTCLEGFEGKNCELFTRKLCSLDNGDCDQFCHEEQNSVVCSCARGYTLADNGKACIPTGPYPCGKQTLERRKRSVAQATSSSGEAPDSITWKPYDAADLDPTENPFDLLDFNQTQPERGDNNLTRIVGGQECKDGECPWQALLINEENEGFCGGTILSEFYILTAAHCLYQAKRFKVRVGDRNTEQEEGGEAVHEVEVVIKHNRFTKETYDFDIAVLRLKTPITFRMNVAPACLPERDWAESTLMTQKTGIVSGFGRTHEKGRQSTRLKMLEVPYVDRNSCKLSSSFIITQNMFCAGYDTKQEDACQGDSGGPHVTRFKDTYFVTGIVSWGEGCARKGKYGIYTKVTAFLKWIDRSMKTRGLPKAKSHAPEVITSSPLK

Regarding “S137A/S380C antithrombin (from UniProt P01008 33-464) (natural protein)”, the second-order rate constant of factor Xa inhibition (kapp), with pentasaccharide amounted to 194000 M⁻¹ s⁻¹. Take “S137A/V375C antithrombin (from UniProt P01008 33-464) (natural protein)”: the second-order rate constant of factor Xa inhibition (kapp), with pentasaccharide came to 664000 M⁻¹ s⁻¹. Consider “S137A/V375C/S380C antithrombin (from UniProt P01008 33-464) (natural protein)”, for which the second-order rate constant of factor Xa inhibition (kapp), with pentasaccharide is 331 M⁻¹ s⁻¹. “recombinant beta-glycoform S137A antithrombin (from UniProt P01008 33-464) (natural protein)” displayed a second-order rate constant of factor Xa inhibition (kapp), with pentasaccharide of 756000 M⁻¹ s⁻¹.
